Changes are numbered by the printed parent chain.
B1: GmGS_WT: wild-type soybean glutamine synthetase, SEQ ID NO. 3, control (protein)
chain: MSLLSDLINLNLSDTTEKVIAEYIWIGGSGMDLRSKARTLPGPVSDPSKLPKWNYDGSSTGQAPGEDSEVIIYPQAIFRDPFRRGNNILVICDTYTPAGEPIPTNKRHDAAKVFSHPDVVAEETWYGIEQEYTLLQKDIQWPLGWPVGGFPGPQGPYYCGVGADKAFGRDIVDAHYKACLYAGINISGINGEVMPGQWEFQVGPSVGISAGDEVWAARYILERITEIAGVVVSFDPKPIQGDWNGAGAHTNYSTKSMRNDGGYEVIKTAIEKLGKRHKEHIAAYGEGNERRLTGRHETADINTFLWGVANRGASVRVGRDTEKAGKGYFEDRRPASNMDPYVVTSMIADTTILWKP
modifications: Glycine max
notes: 3, control
B2: GmGR (protein)
chain: B1 chain with S59G, H296R
modifications: GmGR
B3: TaGR (protein)
chain: MALLTDLLNLDLTDSTEKIIAEYIWIGGSGMDLRSKARTLPGPVTDPSKLPKWNYDGSGTGQAPGEDSEVILYPQAIFKDPFRKGNNILVMCDCYTPAGVPIPTNKRYNAAKIFSNPDVAKEEPWYGIEQEYTLLQKDINWPLGWPVGGFPGPQGPYYCSIGADKSFGRDIVDSHYKACLFAGVNISGINGEVMPGQWEFQVGPTVGISAGDQVWVARYLLERITEIAGVVVTFDPKPIPGDWNGAGAHTNYSTESMRKDGGFKVIVDAVEKLKLKHKEHIAAYGEGNERRLTGKRETADINTFSWGVANRGASVRVGRETEQNGKGYFEDRRPASNMDPYVVTSMIAETTILWKP
modifications: TaGR
B4: OsK (protein)
chain: MASLTDLVNLNLSDTTEKIIAEYIWIGGSGMDLRSKARTLSGPVTDPSKLPKWNYDGSKTGQAPGEDSEVILYPQAIFKDPFRKGNNILVMCDCYTPAGEPIPTNKRHNAAKIFSSPEVASEEPWYGIEQEYTLLQKDINWPLGWPVGGFPGPQGPYYCGIGADKSFGRDIVDSHYKACLYAGINISGINGEVMPGQWEFQVGPSVGISAGDQVWVARYILERITEIAGVVVSFDPKPIPGDWNGAGAHTNYSTKSMRNDGGYEIIKSAIEKLKLRHKEHISAYGEGNERRLTGRHETADINTFSWGVANRGASVRVGRETEQNGKGYFEDRRPASNMDPYIVTSMIAETTIIWKP
modifications: OsK
B5: OsG (protein)
chain: B4 chain with K59G
modifications: OsG
B6: OsD (protein)
chain: B4 chain with K59D
modifications: OsD
B7: OsV (protein)
chain: B4 chain with K59V
modifications: OsV
B8: OsP (protein)
chain: B4 chain with K59P
modifications: OsP
B9: OsF (protein)
chain: B4 chain with K59F
modifications: OsF
B10: OsI (protein)
chain: B4 chain with K59I
modifications: OsI
B11: OsE (protein)
chain: B4 chain with K59E
modifications: OsE
B12: OsC (protein)
chain: B4 chain with K59C
modifications: OsC
B13: OsA (protein)
chain: B4 chain with K59A
modifications: OsA

The molecules below were run on glutamine synthetase-deficient Escherichia coli (assay: Growth of glutamine synthetase-deficient E. coli transformed with GS mutants in M9 medium containing glufosinate). Conditions: media containing 2 mM, 5 mM, 10 mM, and 20 mM glufosinate.
Format: cell-based
Text: According to the sequences of the nucleic acid molecules provided in Example 4, the nucleic acid sequences encoding rice GS mutants OsA, OsC, OsD, OsE, OsF, OsG, OsH, OsI, OsK, OsP, OST, OsV, and OsY were synthesized using chemical synthesis method. Restriction digestion sites (Pac1 and Sbf1) were introduced at both ends thereof, and after restriction digestion, they were linked under the action of ligase to an expression vector (such as pADV7 vector, whose structure is shown in FIG. 4) that was subjected to the same restriction digestion treatment. Then, glutamine synthetase-deficient Escherichia coli was transformed with the resultant. After verification, positive clones were picked up and inoculated in M9 medium containing different concentrations of glufosinate to grow, and the growth status of defective Escherichia coli was observed.
With wild-type rice GS (its amino acid sequence shown in SEQ ID NO. 1 and its encoding gene shown in SEQ ID NO. 4) as a negative control, the glufosinate resistance for the GS mutant OsA (S59A, wherein the amino acid S at site 59 of the rice GS is mutated into A), OsC (S59C), OsD (S59D), OsE (S59E), OsF (S59F), OsG (S59G), OsH (S59H), OsI (S591), OsK (S59K), OsP (S59P), OsT (S59T), OsV (S59V), OsY (S59Y) was detected.
With reference to the detection method of Experimental Example 1, glufosinate resistance of the rice GS mutant OsGR (S59G and H296R, the amino acid S at site 59 of rice GS is mutated into G and the amino acid H at site 296 is mutated into R), the wheat GS mutant TaGR (S59G and H296R, the amino acid S at site 59 of wheat GS is mutated into G and the amino acid H at site 296 is mutated into R), the soybean GS mutant GmGR (S59G and H296R, the amino acid S at site 59 of soybean GS is mutated into G and the amino acid H at site 296 is mutated into R) provided in Example 2 was verified.
With reference to Experimental example 1, the glufosinate resistance of rice GS mutants OA, OD, OE, OG, OI, OK, OM, OP, OQ, OR, OS, OT, and OV provided in Example 3 was detected according to the following method.
With wild-type rice GS as a negative control, the glufosinate resistance of GS mutants OA (H296A, amino acid H at site 296 of rice GS is mutated into A), OD (H296D), OE (H296E), OG (H296G), OI (H2961), OK (H296K), OM (H296M), OP (H296P), OQ (H296Q), OR (H296R), OS (H296S), OT (H296T), OV (H296V) was detected.
For B1, the “growth of transformed E. coli (glufosinate resistance)” value (“growth of transformed E. coli” below) was “could hardly grow”. With B2 the “growth of transformed E. coli” value was “significantly grew”. For B3, the “growth of transformed E. coli” value was “significantly grew”.

Same assay, conditions: medium containing 0 mM glufosinate
For B1, the “growth of transformed GS-deficient E. coli (normal GS enzymatic activity)” value (“growth … (normal GS enzymatic activity)” for short) was “could normally grow”. With B2 the “growth … (normal GS enzymatic activity)” value was “could normally grow”. For B3, the “growth … (normal GS enzymatic activity)” value was “could normally grow”. With B4 the “growth … (normal GS enzymatic activity)” value was “could normally grow”. With B5 the “growth … (normal GS enzymatic activity)” value was “could normally grow”. With B6 the “growth … (normal GS enzymatic activity)” value was “could normally grow”. B7 was tested, and the “growth … (normal GS enzymatic activity)” value was “could normally grow”. In the case of B8, the “growth … (normal GS enzymatic activity)” value is reported as “could normally grow”. B9 was tested, and the “growth … (normal GS enzymatic activity)” value was “could normally grow”. B10 was tested, and the “growth … (normal GS enzymatic activity)” value was “could normally grow”. For B11, the “growth … (normal GS enzymatic activity)” value was “could normally grow”. With B12 the “growth … (normal GS enzymatic activity)” value was “could normally grow”. In the case of B13, the “growth … (normal GS enzymatic activity)” value is reported as “could normally grow”.

Same assay, conditions: medium containing 10 mM glufosinate
B4 was tested, and the “growth of transformed E. coli” value was “significantly superior to that of the negative control”. B5 was tested, and the “growth of transformed E. coli” value was “significantly superior to that of the negative control”. For B6, the “growth of transformed E. coli” value was “significantly superior to that of the negative control”. With B7 the “growth of transformed E. coli” value was “significantly superior to that of the negative control”. B8 was tested, and the “growth of transformed E. coli” value was “significantly superior to that of the negative control”. B9 was tested, and the “growth of transformed E. coli” value was “significantly superior to that of the negative control”. For B10, the “growth of transformed E. coli” value was “significantly superior to that of the negative control”. With B11 the “growth of transformed E. coli” value was “significantly superior to that of the negative control”. In the case of B12, the “growth of transformed E. coli” value is reported as “significantly superior to that of the negative control”. In the case of B13, the “growth of transformed E. coli” value is reported as “significantly superior to that of the negative control”.

Same assay, conditions: medium with 50 mM/100 mM glufosinate
With B4 the “growth of transformed E. coli” value was “significantly grew”. With B5 the “growth of transformed E. coli” value was “significantly grew”. In the case of B6, the “growth of transformed E. coli” value is reported as “significantly grew”. B8 was tested, and the “growth of transformed E. coli” value was “significantly grew”. B9 was tested, and the “growth of transformed E. coli” value was “significantly grew”. For B10, the “growth of transformed E. coli” value was “significantly grew”. With B12 the “growth of transformed E. coli” value was “significantly grew”.

Source: patent publication US12522842B2, “Glutamine synthetase mutant having glufosinate resistance and application thereof and cultivation method therefor” (GEVOTO LLC, priority 2019, dated 2026)
